The values that follow come from article PMC4947174 (Nature Communications, 2016).

B1: Rrn3 (Pol I-specific initiation factor), overexpressed in yeast as Rrn3-TEV-ProtA-His7 (natural protein, S. cerevisiae)
chain: MMAFENTSKRPPQDFVAPIDQKKRKVQFSDSTGLVTLQPEEIKDEVFSAAMYSRFVKSALDDLDKNDSTQIGIIANQVALPSKNPERINDKNLNILLDILSSNINRIESSRGTFLIQSIINFEKWWELPPHTLSKYIYFIKILCSSIPKWWQDVSMILVSCFILPIKQTVCHHDMLKYFLRMIPSSMGFIDTYLAKFFPNKNDTRRKLVNYTSNLLKLRGYCSELGFQIWSLLIEKIISIDVELQNELDELDDDVDDDDLEEVDLEDDDDLDDDSGDDDDENCGNSNEELRSGAADGSQSDSEDMDIIEGMDGTEEYNVELTQGIKELSTKLDSILTLVSTHVEEQVTPESLESGEGVGVFNTLTTLFKTHVLPTYYTRSIQYIMFHVSQQQLELMDSFLVTLIDISFAVNEAAEKKIKSLQYLGSYIARAKKLSRTQIIFVASYLTSWLNRYVIEREEEVDQRGGMERFKHFYAAFQALCYIFCFRHNIFRDTDGNWECELDKFFQRMVISKFNPLKFCNENVMLMFARIAQQESVAYCFSIIENNNNERLRGIIGKADSDKKENSAQANTTSSSWSLATRQQFIDLQSYFPYDPLFLKNYKILMKEYYIEWSEASGEYESDGSDD
notes: Rrn3, RNA polymerase I-specific transcription initiation factor, S. cerevisiae; Released from the beads by TEV protease; source: S. cerevisiae strain y2183 with plasmid 729 (Ycplac111-GAL-Rrn3-TEV-ProtA-HIS), galactose-induced; purified in complex with Pol I (IgG beads, TEV elution)

In assay [1] the target is Rrn3-free RNA polymerase I (WT Pol I) purified through A135-TEV-ProtA (S. cerevisiae (endogenous in yeast) | S. cerevisiae) (UniProt P10964).
Rrn3-free RNA polymerase I (WT Pol I) purified through A135-TEV-ProtA (S. cerevisiae (endogenous in yeast) | S. cerevisiae), sequence (P10964 whole entry, looked up): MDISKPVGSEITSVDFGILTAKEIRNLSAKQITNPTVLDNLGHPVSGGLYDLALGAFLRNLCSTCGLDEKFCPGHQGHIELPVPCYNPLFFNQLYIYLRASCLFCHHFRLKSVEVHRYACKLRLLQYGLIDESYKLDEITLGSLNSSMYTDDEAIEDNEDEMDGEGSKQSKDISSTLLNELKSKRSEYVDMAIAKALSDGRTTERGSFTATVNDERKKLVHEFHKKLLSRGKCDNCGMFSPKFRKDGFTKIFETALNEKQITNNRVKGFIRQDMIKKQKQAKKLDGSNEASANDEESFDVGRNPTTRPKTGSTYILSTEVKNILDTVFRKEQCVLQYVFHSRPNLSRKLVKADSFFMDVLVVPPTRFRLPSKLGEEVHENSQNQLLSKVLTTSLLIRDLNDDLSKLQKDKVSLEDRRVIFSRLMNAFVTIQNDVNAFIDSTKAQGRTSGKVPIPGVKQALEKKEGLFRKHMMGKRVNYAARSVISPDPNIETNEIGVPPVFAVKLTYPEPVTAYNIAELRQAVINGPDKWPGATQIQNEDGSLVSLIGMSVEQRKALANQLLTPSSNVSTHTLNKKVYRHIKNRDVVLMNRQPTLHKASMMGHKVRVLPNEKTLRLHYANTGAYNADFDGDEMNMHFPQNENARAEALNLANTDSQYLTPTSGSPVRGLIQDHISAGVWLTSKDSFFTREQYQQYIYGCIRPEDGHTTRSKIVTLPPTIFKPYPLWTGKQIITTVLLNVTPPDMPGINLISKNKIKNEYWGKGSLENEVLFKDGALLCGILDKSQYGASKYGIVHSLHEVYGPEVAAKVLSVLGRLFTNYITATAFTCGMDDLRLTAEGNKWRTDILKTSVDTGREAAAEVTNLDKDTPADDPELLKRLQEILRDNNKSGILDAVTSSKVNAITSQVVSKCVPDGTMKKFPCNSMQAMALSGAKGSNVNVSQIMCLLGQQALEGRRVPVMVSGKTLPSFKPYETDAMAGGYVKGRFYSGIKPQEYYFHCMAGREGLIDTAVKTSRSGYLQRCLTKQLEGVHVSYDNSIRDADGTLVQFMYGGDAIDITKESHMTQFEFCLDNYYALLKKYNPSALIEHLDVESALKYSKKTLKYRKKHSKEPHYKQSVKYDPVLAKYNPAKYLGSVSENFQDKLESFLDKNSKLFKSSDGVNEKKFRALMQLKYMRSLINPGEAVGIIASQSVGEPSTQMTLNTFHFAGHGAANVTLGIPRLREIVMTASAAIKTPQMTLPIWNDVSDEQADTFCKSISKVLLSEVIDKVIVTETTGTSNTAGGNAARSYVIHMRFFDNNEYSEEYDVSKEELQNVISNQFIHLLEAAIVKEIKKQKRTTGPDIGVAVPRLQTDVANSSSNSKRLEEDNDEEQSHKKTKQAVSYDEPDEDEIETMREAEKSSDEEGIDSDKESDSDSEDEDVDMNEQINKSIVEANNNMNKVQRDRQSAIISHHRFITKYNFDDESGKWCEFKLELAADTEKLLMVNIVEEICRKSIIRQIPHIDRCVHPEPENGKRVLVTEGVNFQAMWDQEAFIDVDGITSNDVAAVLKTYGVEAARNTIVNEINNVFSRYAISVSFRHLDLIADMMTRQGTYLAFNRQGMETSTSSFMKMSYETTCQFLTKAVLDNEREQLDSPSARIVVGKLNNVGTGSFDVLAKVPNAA
The target in assay [2] is T1, Pol I subunit A190 (largest subunit) (S. cerevisiae (endogenous in yeast), UniProt P10964 1-1664).
T1 construct: A190, largest subunit of RNA polymerase I, S. cerevisiae; source: endogenous, S. cerevisiae; part of Pol I purified with Rrn3-ProtA (y2183) or through A135-ProtA (y2423)
T1 sequence (P10964 whole entry): as the sequence (P10964 whole entry, looked up) above
Description: cryo-EM structure; Pol I-Rrn3 complex purified from yeast, cross-linked with 0.5% glutaraldehyde for 2 min; 20 mM Hepes pH 7.8, 100 mM ammonium acetate, 2 mM MgCl2; 32,438 particles of intact complex; 7.5 Å; crystal structures of Pol I and Rrn3 docked into the map. To be noted: both partners purified.

Assay [3] deals with B1. Described as above. To be noted: both partners purified.

Regarding “Recombinant His6-Rrn3 (from UniProt P36070 1-627) (natural protein)”, the promoter-dependent in vitro transcription: purified Pol I-Rrn3 complex against the same concentration of Rrn3-free Pol I with recombinant His6-Rrn3 (70 nM) and CF (20 nM) in assay [1] was < 10 fold.

Take B1: the binding result in assay [2] was “binds”.

B2: Pol I subunit AC19 (natural protein, S. cerevisiae (endogenous in yeast), UniProt P28000 1-142, looked up)
chain: MTEDIEQKKTATEVTPQEPKHIQEEEEQDVDMTGDEEQEEEPDREKIKLLTQATSEDGTSASFQIVEEDHTLGNALRYVIMKNPDVEFCGYSIPHPSENLLNIRIQTYGETTAVDALQKGLKDLMDLCDVVESKFTEKIKSM
notes: AC19, subunit shared by RNA polymerases I and III, S. cerevisiae; source: endogenous, S. cerevisiae; part of Pol I purified with Rrn3-ProtA (y2183)
As for B2, the binding result in assay [3] is given as “binds”.

B3: Pol I subunit AC40 (natural protein, S. cerevisiae (endogenous in yeast), UniProt P07703 1-335, looked up)
chain: MSNIVGIEYNRVTNTTSTDFPGFSKDAENEWNVEKFKKDFEVNISSLDAREANFDLINIDTSIANAFRRIMISEVPSVAAEYVYFFNNTSVIQDEVLAHRIGLVPLKVDPDMLTWVDSNLPDDEKFTDENTIVLSLNVKCTRNPDAPKGSTDPKELYNNAHVYARDLKFEPQGRQSTTFADCPVVPADPDILLAKLRPGQEISLKAHCILGIGGDHAKFSPVSTASYRLLPQINILQPIKGESARRFQKCFPPGVIGIDEGSDEAYVKDARKDTVSREVLRYEEFADKVKLGRVRNHFIFNVESAGAMTPEEIFFKSVRILKNKAEYLKNCPITQ
notes: AC40, subunit shared by RNA polymerases I and III, S. cerevisiae; source: endogenous, S. cerevisiae; part of Pol I purified with Rrn3-ProtA (y2183)
On to B3, for which the binding result in assay [3] was “binds”.

B4: Pol I subunit A14 (natural protein, S. cerevisiae (endogenous in yeast), UniProt P50106 1-137, looked up)
chain: MMKGSRRTGNNTATTLNTPVVIHATQLPQHVSTDEVLQFLESFIDEKENIIDSTTMNTISGNAADADAAAVANTSLNIDTNLSSSISQLKRIQRDFKGLPPAQDFSAAPIQVSTTEKKETSIGVSATGGKKTTFADE
notes: A14, subunit of RNA polymerase I, S. cerevisiae; source: endogenous, S. cerevisiae; part of Pol I purified with Rrn3-ProtA (y2183)
Turning to B4, the binding result in assay [3] was “binds”.
